First the molecules themselves.
B1: antibody 260 (antibody, V domains shown)
VH: EVQLVESGGGLVQPGRSLRLSCAASGFTFDYYAMHWVRQAPGKGLEWVSGISWNSGTIGYADSVKGRFTISRDNAKNSLYLQMNSLRAEDTALYYCAKDSRPSGRYYYGMDVWGQGTTVTVSS
VL: not shown
B2: antibody 301 (antibody, V domains shown)
VH: QVQLVQSGAEVKKPGASVKVSCKVSGYTLTELSMHWVRQAPGKGLEWMGGFDPEDGETIYAQKFQGRVTMTEDTSTDTAYMELSSLRSEDTAVYYCATAFCGGDCYPPDALDIWGQGTMVTVSS
VL: DIQMTQSPSSVSASVGDRVTITCRASQGISSWLAWYQQKPGKAPKLLIYAASSLQSGVPSRFSGSGSGTDFTLTISSLQPEDFATYYCQQANSFPLTFGGGTKVEIK
B3: antibody 294 (antibody, V domains shown)
VH: EVQLVESGGGLVQPGGSLRLSCAASGFTVSSNYMNWVRQAPGKGLEWVSVIYSGGSTYYADSVKGRFTISRDNSKNTLYLQMNSLRAEDTAVYYCARDLGPSGMDVWGQGTTVTVSS
VL: DIQMTQSPSSVSASVGDRVTITCRASQGISSWLAWYQQKPGKAPKLLIYAASSLQSGVPSRFSGSGSGTDFTLTISSLQPEDFATYYCQQANSFPLFGGGTKVEIK
B4: antibody 303 (antibody, V domains shown)
VH: QVQLVESGGGVVQPGRSLRLSCAASGFNLSSYAMHWVRQASGKGLEWVSLISYDGSIKYYADSVKGRFTVSGDNSKNMLFLQMNSLRADDSALYYCVRGGVSGPNAFDIWGQGTTVTVSS
VL: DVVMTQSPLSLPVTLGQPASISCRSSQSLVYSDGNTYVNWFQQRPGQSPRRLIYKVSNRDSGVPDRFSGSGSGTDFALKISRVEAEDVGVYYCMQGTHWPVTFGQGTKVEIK
B5: antibody 273 (antibody, V domains shown)
VH: QVQLVQSGAEVKKPGASVKVSCKVSGYTLTELSMHWVRQAPGKGLEWMGGFDPEDGETIYAQKFQGRVTMTEDTSTDTAYMELSSLRSEDTAVYYCATAPGYYDSSAPQPINWFDPWGQGTLVTVSS
VL: QSALTQPASVSGSPGQSITISCTGTSSDVGSYNLVSWYQQHPGKAPKLMIYEVSKRPSGVSNRFSGSKSGNTASLTISGLQAEDEADYYCCSYAGSSTLVFGGGTKLTVL
B6: antibody 281 (antibody, V domains shown)
VH: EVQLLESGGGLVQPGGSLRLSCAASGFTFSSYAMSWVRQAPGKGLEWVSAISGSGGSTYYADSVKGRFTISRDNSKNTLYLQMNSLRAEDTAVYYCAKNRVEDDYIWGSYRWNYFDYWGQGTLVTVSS
VL: QSALTQPASVSGSPGQSITISCTGTSSDVGSYNLVSWYQQHPGKAPKLMIYEVSKRPSGVSNRFSGSKSGNTASLTISGLQAEDEADYYCCSYAGSSTHVVFGGGTKLTVL
B7: antibody 300 (antibody, V domains shown)
VH: QVQLVESGGGVVQPGRSLTLSCAASGFTFSSYAMHWVRQAPGKGLEWVALISYDGNNKYYADSVKGRFTFSRDNSKNTLYLQMNSLRAEDTAVYYCARTNSGSYRTAFDYWGQGTLVTVSS
VL: DIQMTQSPSTLSASVGDRVTITCRASQSISIWLAWYQQKPGKAPKLLIYKASSLESGVPSRFSGSGSGTEFTLTISSLQPDDFATYYCQQYNSLWTFGQGTKVEIK
B8: antibody 264 (antibody, V domains shown)
VH: QVHLVESGGGVVQPGRSLRLSCAASGFTLTSYAMHWVRQAPGKGLEWVALISYDGSVKKYAESVKGRITVSGDNSRNTLHLQINTLRADDTAVYYCVRGGVSGPNSFDLWGQGTMVTVSS
VL: DVVMTQSPLSLPVTLGQPASISCRSSQSLEYSDGNTYVNWFQQRPGQSPRRLIYQVSNRASGVPDRFSGSGSGTDFTLQISRVEAEDVGIYYCMQGTHWPVTFGQGTKVEIK
B9: antibody 266 (antibody, V domains shown)
VH: B4 VH with S31N, A40P, A61T, M78T, A88P, A106S, I109M
VL: B8 VL with E30V, N58I, T77A, Q79K, I90V
B10: antibody 265 (antibody, V domains shown)
VH: EVQLVQSGAEVKKPGATVKVSCKFSGDTFSHYYIHWVQQAPGKGLEWMGLVDPQDGESEYAQKFQGKVTITADTSIDTSYLEVTSLRFDDTAFYFCATRGMSGAFDRWGQGTLVTVSS
VL: DIVMTQSPDSLAVSLGERATINCKSSQSILSTSNNKNYLAWYQQKPGQPPKLLIYWASTRESGVPDRFSGGGSGTDFTLTISSLQAEDVAVYYCQQYYRTAYTTPIYTFGQGTKLEIK
B11: antibody 284 (antibody, V domains shown)
VH: QVTLRESGPALVKPTQTLTLTCTFSGFSLSTSGMCVSWIRQPPGKALEWLALIDWDDDKYYSTSLKTRLTISKDTSKNQVVLTMTNMDPVDTATYYCARTSGYSSSWPSFDYWGQGTLVTVSS
VL: not shown
B12: antibody 295 (antibody, V domains shown)
VH: QVQLQESGPGLVKPSQTLSLTCTVSGGSISSSDYYWSWIRQPPGKGLEWIGYIYYSGSTYYNPSLKSRVTISVDTSKNQFSLKLSSVTAADTAVYYCARVVGYCSSTSCYVDYWGQGTLVTVSS
VL: EIVLTQSPATLSLSPGERVTLSCRASQSVSSYLAWYQQKPGQAPRLLIYDASNRATGIPARFSGSGSGTDFTLTISSLEPEDFAVYYCQQRSNWPPGLTFGGGTKVEIK
B13: antibody 288 (antibody, V domains shown)
VH: EVQLVESGGGLVQPGGSLRLSCAASGFTFSSYDMHWVRQATGKGLEWVSAIGTAGDTYYPGSVKGRFTISRENAKNSLYLQMNSLRAGDTAVYYCARGANRDYDILTGYYSYYYYGMDVWGQGTTVTVSS
VL: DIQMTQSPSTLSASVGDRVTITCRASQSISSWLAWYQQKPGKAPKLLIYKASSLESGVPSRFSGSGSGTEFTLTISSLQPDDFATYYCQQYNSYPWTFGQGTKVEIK
B14: antibody 276 (antibody, V domains shown)
VH: QVQLQESGPGLVKPSQTLSLTCTVSGDSISSGGYYWSWIRQHPGKGLEWIGYIYYSGSAYYNPSLKSRVTISLDTSKNQFSLKLSSVTAADTAVYYCARDSVAGFSIFDYWGQGTLVTVSS
VL: SSELTQDPAVSVALGQTVRITCQGDSLRSYYASWYQQKPGQAPVRVIYGKNNRPSGIPDRFSGSSSGNTASLTITGAQAEDEADYYCNSWDSSGNHVVFGGGTKLTVL
B15: antibody 263 (antibody, V domains shown)
VH: EVQLVQSGAEVKKPGATVKISCKVSGYTFTDYYMHWVQQAPGKGLEWMGLVDPEDGETIYAEKFQGRVTITADTSTDTAYMELSSLRSDDTAVYYCTTDLAFTIFGGRRGFDPWGQGTLVTVSS
VL: DIQLTQSPSFLSASVGDRVTITCRASQGISSYLAWYQQKPGKAPKLLIYAASTLQSGVPSRFSGSGSGTEFTLTISSLQPEDFATYYCQQLNSYDFGQGTRLEIK
B16: antibody 470 (antibody, V domains shown)
VH: not shown
VL: B5 VL
B17: antibody 471 (antibody, V domains shown)
VH: QVQLVESGGGVVQPGRSLRLSCAASGFTFSSYAMHWVRQAPGKGLEWVAVISYDGSNKYYADSVKGRFTISRDNSKNTLYLQMNSLRAEDTAVYYCAKQYSPYCSGGSCYSGASDYWGQGTLVTVSS
VL: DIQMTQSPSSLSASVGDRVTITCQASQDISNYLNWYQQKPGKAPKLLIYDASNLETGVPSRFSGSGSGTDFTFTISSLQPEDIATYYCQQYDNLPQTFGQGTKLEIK
B18: anti-SARS-CoV-2 antibody 1193 (antibody, V domains shown)
VH: EVQLVESGGGLVQPGGSLRLSCAASGFTFSSYYMNWVRQAPGKGLEWVSYISSGSSIIYYADSVKGRFTISRDNAKNSLYLQMNSLRDEDTAVYYCARDSPLRYFDWQLGGGFDYWGQGTLVTVSS
VL: B5 VL with S31G, L34Y, E52D, K55N, C91S, A94T, G95S, T98L, L99W
B19: anti-SARS-CoV-2 antibody 1118 (antibody, V domains shown)
VH: EVQLVESGGGLVQPGGSLRLSCAASGFRFSNYEMNWVRQAPGKGLEWVSYISSTGGSIFYADSVKGRFTISRGDAKNSVYLQMNSLRAEDTAVYYCARAMYYYGSGTLDYWGQGTLVTVSS
VL: DIQMTQSPSSLSASVGDRVTITCRASQSISRFLNWYQQKPGTAPKLLIYDVSSLQSGVPTRFSGSGSGTDFTLTISSLQPEDFATYYCQQSYTTPPAFGPGTRVDIK
B20: anti-SARS-CoV-2 antibody 1081 (antibody, V domains shown)
VH: EVQLVQSGAEVKKPGESLKISCKRSGYSFTTYWIGWVRQMPGKGLEWMGSIYPGDSDTRYSPSFQGQVTISADKSISTAYLQWSSLKASDTAMYYCASQEVPGYYYYMDVWGKGTTVTVSS
VL: DIQMTQSPSSLSASVGDRVTITCRASQSISSYLHWYQQKPGKAPKLLIYAASSLQSGVPSRFSGSGSGTDFTLTISSLQPEDFATYYCQQTYSTHTWTFGQGTKVEIK
B21: anti-SARS-CoV-2 antibody 1098 (antibody, V domains shown)
VH: B20 VH with E1D, R24G, S28R, T31S, G35A, S50I, E100A, V101A, P102A, Y105F
VL: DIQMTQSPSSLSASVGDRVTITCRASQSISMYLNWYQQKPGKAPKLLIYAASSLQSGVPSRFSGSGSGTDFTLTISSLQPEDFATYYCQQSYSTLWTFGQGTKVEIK
B22: anti-SARS-CoV-2 antibody 1203 (antibody, V domains shown)
VH: QLRLQESGPGLVKPSETLSLTCTVSGGSISSSNFYWGWIRQPPGKGLEWIGSIYYSGSTHYNPSLKSRVTVSVDTSKNQFSLKLSSVTAADTAVYYCARLTYYYDSSGFIRAEPFDYWGQGILVTVSS
VL: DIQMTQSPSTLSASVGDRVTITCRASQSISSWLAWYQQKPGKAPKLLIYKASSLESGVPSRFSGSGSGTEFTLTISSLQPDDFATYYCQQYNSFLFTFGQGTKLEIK
B23: anti-SARS-CoV-2 antibody 1091 (antibody, V domains shown)
VH: EVQLVESGGGLVKPGGSLRLSCAASGFPFITYSMNWVRQAPGKGLEWVSSISRNSDYIYYADSVRGRVTISRDNAENSLYLQMHSLRAEDTAVYYCARDVVRSGNYYIPRHGMDVWGRGTTVTVSS
VL: QSVLTQPPSASGTPGQRVTISCSGTSSNIGSNTVNWYQQLPETAPKLLIYGTDQRPSGVPDRFSGSKSGTSASLAISRLQSEDEADYYCATRDDSLSGPVFGGGTQLTVL

Changes are numbered by the printed parent chain.

One experiment deals with SARS-CoV-2 full length spike protein, V483A mutant (SARS-CoV-2, UniProt P0DTC2 14-1273).
On to B1, for which the “median fluorescence intensity, fold over isotype control” value (shortened to “median fluorescence intensity, fold”) worked out at 11 fold over isotype.
B2: the “median fluorescence intensity, fold” value was 21.3 fold over isotype.
The same measure, in the same setting: next, B3: 18.4 fold over isotype.
Same read-out and setting: next, B4: 10 fold over isotype; B5: 16 fold over isotype; B6: 20.3 fold over isotype.
B7: the “median fluorescence intensity, fold” value came to 10.2 fold over isotype.
Same read-out and setting: the figure for B8 is 11.1 fold over isotype.
On the same count and under the same terms, next, B9: 10.8 fold over isotype.
As for B10, the “median fluorescence intensity, fold” value was found to be 14.5 fold over isotype.
Still for that read-out and setting: the figure for B11 is 22 fold over isotype.
For B12, the “median fluorescence intensity, fold” value amounted to 9.93 fold over isotype.
The same measure, in the same setting: the figure for B13 is 18.7 fold over isotype; for B14 it is 11.1 fold over isotype.
In the case of B15, the “median fluorescence intensity, fold” value was determined as 17.3 fold over isotype.

The target of another experiment is SARS-CoV-2 full length spike protein, V483A mutant, expressed on CHO cells (SARS-CoV-2, UniProt P0DTC2 14-1273).
Take B16: the “median fluorescence intensity, fold” value worked out at 7.63 fold over isotype.
In the case of B17, the “median fluorescence intensity, fold” value was found to be 2.75 fold over isotype.

The target in another experiment is SARS-CoV-2 spike protein with D614G mutation (SARS-CoV-2, UniProt P0DTC2 14-1208).
With B18, the Kd is 41 pM.
On the same count and under the same terms, the figure for B19 is 44 pM; for B20 it is 41 pM.
In the case of B21, the Kd worked out at 22 pM.
B22: binding was put at a Kd of 79 pM.
On the same count and under the same terms, the figure for B23 is 19 pM.

The Kd is a measure of binding affinity in units of concentration. A low value points to tighter binding.
